Source: PMC2717645

Biological target: taxol-stabilized microtubules (bovine brain tubulin) (bovine) (UniProt Q6B856)
Assay: co-sedimentation

B1: recombinant LC1 (natural protein)
chain: MAKATTIKDAIRIFEERKSVVATEAEKVELHGMIPPIEKMDATLSTLKACKHLALSTNNIEKISSLSGMENLRILSLGRNLIKKIENLDAVADTLEELWISYNQIASLSGIEKLVNLRVLYMSNNKITNWGEIDKLAALDKLEDLLLAGNPLYNDYKENNATSEYRIEVVKRLPNLKKLDGMPVDVDEREQANVARGG
stoichiometry N (LC1 per tubulin monomer): 1.06
